Where a chain is given by its changes, count along the chain named. In names and notes the source's numbering stands.

The target in test [1] is T1, eGFP-PCNA with C-terminal BC2 tag (eGFP-PCNABC2T) (human, UniProt P12004 1-261).
T1 construct: Expressed in HEK293T or HeLa cells; not shown: eGFP
As to the kind of experiment: immunoprecipitation from HEK293T lysate, immunoblot with anti-PCNA. Here is the method:
HEK293T cells transiently expressing eGFP, eGFPBC2T or BC2TeGFP, eGFP-PCNA, eGFP-PCNABC2T, mCherry-Vimentin, mCherry-VimentinBC2T were washed and harvested in phosphate buffered saline (PBS), snap-frozen in liquid nitrogen and stored at −20° C. Cell pellets were homogenized in 200 μl lysis buffer (10 mM Tris/Cl pH 7.5, 150 mM NaCl, 0.5% NP40, 1 μg DNaseI, 2 mM MgCl₂, 2 mM PMSF, 1× protease inhibitor mix M (Serva) by repeated pipetting for 40 min on ice. After a centrifugation step (10 min at 18.000×g) the protein concentration of each lysate was determined using a Pierce BCA Protein Assay Kit (Thermo Fisher Scientific) according to manufacturer's protocol and the protein solutions were adjusted with dilution buffer (10 mM Tris/Cl pH 7.5, 150 mM NaCl, 2 mM PMSF) to a concentration of 1 mg/ml. 2% of the supernatant were added to SDS-containing sample buffer (referred to as input). […] After a centrifugation step (2 min, 2500×g) the precleared supernatant was transferred to a new cup. 2% were added to SDS-containing sample buffer (referred to as non-bound). […] Samples were analyzed by SDS-PAGE followed by immunoblotting. Immunoblots were probed with indicated antibodies.

Test [2] addresses T2, BC2T W10A peptide (BC2TW10X library) (human).
T2 construct: also called W10 permutant A
T2 peptide: Ac-PDRKAAVSHAQQ-NH2
As to the kind of experiment: BC2TW10X library pulldown with immobilized Nb, LC-MS of the supernatant. How it is done: (§1) To investigate the binding specificity of the BC2T and derived mutants peptide libraries for each amino acid position of the sequence […] (SEQ ID NO:4) were synthesized with acetyl and amide groups located at the N-termini or C-termini respectively (Intavis). […] Incubations were performed in 300 μl PBS/0.01% CHAPS for 1 h on a HulaMixer (Life Technologies). Subsequent to a centrifugation step 10 μl supernatant were analyzed in a LC-MS procedure. Peptides were separated using an UltiMate3000 RSLCnano System (Thermo Scientific), composed of a C18 PepMap100μ-Precolumn (300 μm×5 mm; particle size: 5 μm; pore size: 100 Å—Thermo Scientific) and a C18 analytical column (Acclaim Rapid Separation LC (RSLC) Column: 150 mm×5 mm; particle size: 2.2 μm; pore size: 100 Å—Thermo Scientific). A step gradient was applied starting at 8% and ending after 20 min at 30% eluent B (80% acetonitrile, 20% H₂O, 0.1% formic acid). Peptides were analyzed using a FULL-MS-strategy detected by a Q Exactive Plus mass spectrometer (Thermo Scientific). As maximal injection time 100 ms was chosen while setting the AGC target to 3E6. The resolution was set to 70.000. Half-maximal signal areas were referenced to control precipitation approaches using a GFP-specific nanobody immobilized on agarose beads. All experiments were done in triplicates.

Test [3] deals with T3, BC2T W10V peptide (BC2TW10X library) (human).
T3 construct: also called W10 permutant V
T3 peptide: Ac-PDRKAAVSHVQQ-NH2
Described as above. Here is the method: as §1

For test [4], the target named is T4, BC2T W10I peptide (BC2TW10X library) (human).
T4 construct: Isobaric with the leucine peptide; also called W10 permutant I
T4 peptide: Ac-PDRKAAVSHIQQ-NH2
The test is described as above. Here is the method: as §1

The target of test [5] is T5, BC2T W10L peptide (BC2TW10X library) (human).
T5 construct: Isobaric with the isoleucine peptide; also called W10 permutant L
T5 peptide: Ac-PDRKAAVSHLQQ-NH2
Described as above. How it is done:
as §1

Test [6] has as its target T6, BC2T W10M peptide (BC2TW10X library) (human).
T6 construct: also called W10 permutant M
T6 peptide: Ac-PDRKAAVSHMQQ-NH2
Described as above. Here is the method:
as §1

Test [7] concerns the target T7, BC2T W10Q peptide (BC2TW10X library) (human).
T7 construct: also called W10 permutant Q
T7 peptide: Ac-PDRKAAVSHQQQ-NH2
Described as above. How it is done:
as §1

In test [8] the target is T8, BC2T W10Y peptide (BC2TW10X library) (human).
T8 construct: also called W10 permutant Y
T8 peptide: Ac-PDRKAAVSHYQQ-NH2
Described as above. How it is done: as §1

The target of test [9] is T9, BC2T W10K peptide (BC2TW10X library) (human).
T9 construct: also called W10 permutant K
T9 peptide: Ac-PDRKAAVSHKQQ-NH2
The description is as above. Here is the method:
as §1

Test [10] concerns the target T10, BC2T W10D peptide (BC2TW10X library) (human).
T10 construct: also called W10 permutant D
T10 peptide: Ac-PDRKAAVSHDQQ-NH2
The test is described as above. Here is the method:
as §1

Test [11] addresses T11, BC2T W10E peptide (BC2TW10X library) (human).
T11 construct: also called W10 permutant E
T11 peptide: Ac-PDRKAAVSHEQQ-NH2
The description is as above. Here is the method:
as §1

In test [12] the target is T12, BC2T W10F library peptide (human).
T12 construct: also called BC2TW10X: F
T12 peptide: Ac-PDRKAAVSHFQQ-NH2
As to the kind of experiment: peptide library pulldown on immobilized Nb, LC-MS of supernatant; ratio vs GFP-Nb control (1 = not captured, 0 = captured). An outline of the steps:
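Unbound peptide left in supernatant after 1 h pulldown in PBS/0.01% CHAPS measured by reversed-phase LC-MS (8–30% eluent B gradient, 20 min).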

T1 sequence (P12004 other isoform, or with tags, fused parts or gaps limits assumed): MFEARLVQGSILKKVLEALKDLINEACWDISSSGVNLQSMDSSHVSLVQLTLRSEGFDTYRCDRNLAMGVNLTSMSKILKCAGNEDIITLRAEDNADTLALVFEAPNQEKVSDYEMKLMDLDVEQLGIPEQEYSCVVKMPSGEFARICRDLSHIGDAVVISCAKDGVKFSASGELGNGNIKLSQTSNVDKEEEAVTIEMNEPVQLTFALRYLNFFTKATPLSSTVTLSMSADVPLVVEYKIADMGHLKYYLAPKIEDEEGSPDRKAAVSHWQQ

B1: BC2 nanobody (VHH)
VHH: QVQLVESGGGLVQPGGSLTLSCTASGFTLDHYDIGWFRQAPGKEREGVSCINNSDDDTYYADSVKGRFTIFMDNAKDTVYLQMNSLKPEDTAIYYCAEARGCKRGRYEYDFWGQGTQVTVSS
notes: Alpaca VHH, 122 aa; also called BC2-Nb; BC2 nanotrap (BC2-Nb immobilized on agarose/Sepharose beads); not shown: C-terminal 6xHis-tag added by the pHEN6 vector
On to B1, for which the binding result in [1] is on record as “binds”; in test [2], “no binding”; in test [3], “no binding”; in test [4], “no binding”; in test [5], “no binding”; in test [6] it was “no binding”. Besides, the binding result in test [7], in test [8], in [9], in test [10] and in [11] was “no binding” in each case.

B2: BC2-Nb(R106E) (VHH)
VHH: B1 VHH with R106E
notes: Headlock mutant; immobilized on beads in the library pulldown
B2: the ratio in test [12] is 1.
